According to publication PMC3352918, “Mechanism of Nucleic Acid Unwinding by SARS-CoV Helicase” (PLoS ONE, 2012):

Molecular target: T1, GST-nsp13 (Glutathione S-Transferase-tagged nsp13 of SARS-CoV) (SARS-CoV, UniProt P0C6X7 5302-5902)
T1 construct: also called SARS-CoV helicase; non-structural protein 13; not shown: GST, N-terminal, kept
Assay: pull-down
Conditions: both partners purified

B1: nsp12-H6 (C-terminal hexahistidine containing nsp12, SARS-CoV RNA-dependent RNA polymerase) (enzyme)
chain: SADASTFLNRVCGVSAARLTPCGTGTSTDVVYRAFDIYNEKVAGFAKFLKTNCCRFQEKDEEGNLLDSYFVVKRHTMSNYQHEETIYNLVKDCPAVAVHDFFKFRVDGDMVPHISRQRLTKYTMADLVYALRHFDEGNCDTLKEILVTYNCCDDDYFNKKDWYDFVENPDILRVYANLGERVRQSLLKTVQFCDAMRDAGIVGVLTLDNQDLNGNWYDFGDFVQVAPGCGVPIVDSYYSLLMPILTLTRALAAESHMDADLAKPLIKWDLLKYDFTEERLCLFDRYFKYWDQTYHPNCINCLDDRCILHCANFNVLFSTVFPPTSFGPLVRKIFVDGVPFVVSTGYHFRELGVVHNQDVNLHSSRLSFKELLVYAADPAMHAASGNLLLDKRTTCFSVAALTNNVAFQTVKPGNFNKDFYDFAVSKGFFKEGSSVELKHFFFAQDGNAAISDYDYYRYNLPTMCDIRQLLFVVEVVDKYFDCYDGGCINANQVIVNNLDKSAGFPFNKWGKARLYYDSMSYEDQDALFAYTKRNVIPTITQMNLKYAISAKNRARTVAGVSICSTMTNRQFHQKLLKSIAATRGATVVIGTSKFYGGWHNMLKTVYSDVETPHLMGWDYPKCDRAMPNMLRIMASLVLARKHNTCCNLSHRFYRLANECAQVLSEMVMCGGSLYVKPGGTSSGDATTAYANSVFNICQAVTANVNALLSTDGNKIADKYVRNLQHRLYECLYRNRDVDHEFVDEFYAYLRKHFSMMILSDDAVVCYNSNYAAQGLVASIKNFKAVLYYQNNVFMSEAKCWTETDLTKGPHEFCSQHTMLVKQGDDYVYLPYPDPSRILGAGCFVDDIVKTDGTLMIERFVSLAIDAYPLTKHPNQEYADVFHLYLQYIRKLHDELTGHMLDMYSVMLTNDNTSRYWEPEFYEAMYTPHTVLQ
notes: also called SARS-CoV polymerase; SARS-CoV RdRp
  binding result: binds
